Data published in the Immune Epitope Database (IEDB).
Values belong to the sequence of their own block, whether it stands above or below them.

What was measured:
[1] = biological target: HLA-B*35:01; test: IEDB peptide-MHC binding, purified MHC/competitive/radioactivity; filed as Kd, often an IC50 or EC50 that approximates it; ≥ and ≤ were set here for values at or beyond the usual limits of such assays
[2] = biological target: HLA-B*07:02; test: as above
[3] = biological target: HLA-B*54:01; test: as above
[4] = biological target: HLA-B*51:01; test: as above
[5] = biological target: HLA-B*53:01; test: as above
[6] = biological target: HLA-A*31:01; test: IEDB peptide-MHC binding, purified MHC/competitive/fluorescence; filed as Kd, often an IC50 or EC50 that approximates it; ≥ and ≤ were set here for values at or beyond the usual limits of such assays
[7] = biological target: HLA-A*11:01; test: IEDB peptide-MHC binding, purified MHC/direct/fluorescence; filed as Kd, often an IC50 or EC50 that approximates it; ≥ and ≤ were set here for values at or beyond the usual limits of such assays
[8] = biological target: HLA-A*68:01; test: IEDB peptide-MHC binding, purified MHC/competitive/radioactivity; filed as Kd, often an IC50 or EC50 that approximates it; ≥ and ≤ were set here for values at or beyond the usual limits of such assays
[9] = biological target: HLA-B*45:01; test: as above; settings: source organism: Mammarenavirus brazilense
[10] = biological target: HLA-B*40:01; test: as above; settings: source organism: Mammarenavirus brazilense
[11] = biological target: HLA-B*18:01; test: as above; settings: source organism: Mammarenavirus brazilense
[12] = biological target: HLA-B*40:02; test: as above; settings: source organism: Mammarenavirus brazilense
[13] = biological target: HLA-B*44:03; test: as above; settings: source organism: Mammarenavirus brazilense
[14] = biological target: HLA-B*44:02; test: as above; settings: source organism: Mammarenavirus brazilense
[15] = biological target: HLA-A*03:01; test: IEDB peptide-MHC binding, purified MHC/direct/fluorescence; filed as Kd, often an IC50 or EC50 that approximates it; ≥ and ≤ were set here for values at or beyond the usual limits of such assays
[16] = biological target: HLA-A*03:01; test: IEDB peptide-MHC binding, purified MHC/competitive/fluorescence; filed as Kd, often an IC50 or EC50 that approximates it; ≥ and ≤ were set here for values at or beyond the usual limits of such assays
[17] = biological target: HLA-B*15:03; test: IEDB peptide-MHC binding, purified MHC/competitive/radioactivity; filed as Kd, often an IC50 or EC50 that approximates it; ≥ and ≤ were set here for values at or beyond the usual limits of such assays
[18] = biological target: HLA-A*02:01; test: as above
[19] = biological target: HLA-A*30:01; test: as above; settings: source organism: Vaccinia virus WR
[20] = biological target: HLA-B*15:01; test: as above; settings: source organism: Vaccinia virus WR
[21] = biological target: HLA-B*08:01; test: as above; settings: source organism: Vaccinia virus WR
[22] = biological target: HLA-A*32:01; test: as above; settings: source organism: Vaccinia virus WR
[23] = biological target: HLA-A*11:01; test: IEDB peptide-MHC binding, purified MHC/competitive/fluorescence; ≥ and ≤ were set here for values at or beyond the usual limits of such assays; settings: source organism: West Nile virus
[24] = biological target: HLA-A*02:06; test: IEDB peptide-MHC binding, purified MHC/competitive/radioactivity; filed as Kd, often an IC50 or EC50 that approximates it; ≥ and ≤ were set here for values at or beyond the usual limits of such assays
[25] = biological target: HLA-A*02:02; test: as above
[26] = biological target: HLA-A*02:03; test: as above
[27] = biological target: HLA-A*03:01; test: as above; settings: source organism: Vaccinia virus Copenhagen
[28] = biological target: HLA-A*33:01; test: as above; settings: source organism: Vaccinia virus Copenhagen
[29] = biological target: HLA-A*31:01; test: as above; settings: source organism: Vaccinia virus Copenhagen
[30] = biological target: HLA-A*11:01; test: as above; settings: source organism: Vaccinia virus Copenhagen
[31] = biological target: HLA-A*02:01; test: IEDB peptide-MHC binding, purified MHC/competitive/fluorescence; filed as Kd, often an IC50 or EC50 that approximates it; ≥ and ≤ were set here for values at or beyond the usual limits of such assays; settings: source organism: Vaccinia virus L-IPV
[32] = biological target: HLA-A*02:12; test: IEDB peptide-MHC binding, purified MHC/direct/fluorescence; filed as Kd, often an IC50 or EC50 that approximates it; ≥ and ≤ were set here for values at or beyond the usual limits of such assays; settings: source organism: Bacillus cereus 03BB108
[33] = source organism: SARS coronavirus Tor2
[34] = source organism: Yellow fever virus 1899/81
[35] = source organism: Vaccinia virus WR
[36] = source organism: Desulfitobacterium hafniense DCB-2
[37] = source organism: Vaccinia virus Copenhagen
[38] = source organism: West Nile virus
[39] = source organism: Orthohantavirus dobravaense
[40] = source organism: Mammarenavirus juninense
[41] = source organism: Bacillus anthracis str. Tsiankovskii-I
[42] = source organism: Triticum aestivum
[43] = source organism: Vibrio vulnificus

Sequence: TPKYKFVRI
Kd [1, 33]: ≥ 77400 nM | Kd [2, 33]: ≥ 10000 nM | Kd [3, 33]: ≥ 46200 nM | Kd [4, 33]: 16100 nM | Kd [5, 33]: 16000 nM

Sequence: GTHPFSRIR
Kd [6, 34]: 6 nM | Kd [7, 34]: 326 nM

Sequence: IPIGMQFDKV
Kd [1, 35]: 5280 nM | Kd [2, 35]: 4910 nM | Kd [3, 35]: 40.4 nM | Kd [4, 35]: 394 nM | Kd [5, 35]: 590 nM

Sequence: AVSMANIFR
Kd ([8]; source organism: Dengue virus 2 Jamaica/1409/1983): 55.4 nM | Kd ([6]; source organism: dengue virus type 1): 1.37 nM | Kd ([7]; source organism: Dengue virus 1 Singapore/S275/1990): 8.9 nM

Sequence: RELLGYCVSL
Kd [9]: 4850 nM | Kd [10]: 9820 nM | Kd [11]: 12800 nM | Kd [12]: 5.07 nM | Kd [13]: 5060 nM | Kd [14]: 1920 nM

Sequence: VLFMVAWGK
Kd ([6]; source organism: Hantaan virus 76-118): 161 nM | Kd ([15]; source organism: Amur virus): 2260 nM | Kd ([7]; source organism: Amur virus): 76 nM

Kd [16, 36]: 12.9 nM | Kd [6, 36]: 3.9 nM
Sequence: ALFAGDLYR

Sequence: MPTDMLKLF
Kd [1, 35]: 0.163 nM | Kd [2, 35]: 17.8 nM | Kd [3, 35]: 28.6 nM | Kd [4, 35]: 99.2 nM | Kd [5, 35]: 0.141 nM

Sequence: NMGVAMNLF
Kd [17, 35]: 998 nM

Sequence: AMKVDANYF
Kd [17, 35]: 0.149 nM

Sequence: MKITRPRHF
Kd [17, 35]: 1.04 nM

Sequence: VLKGLYNFA
Kd ([18]; source organism: Lassa virus Josiah): 6250 nM

Sequence: TPLISFFGLF
Kd [1, 35]: 416 nM | Kd [2, 35]: 1140 nM | Kd [3, 35]: 3960 nM | Kd [4, 35]: 4970 nM | Kd [5, 35]: 31.1 nM

Sequence: QPEKEIPEY
Kd [1, 35]: 15.6 nM | Kd [2, 35]: ≥ 36900 nM | Kd [3, 35]: ≥ 43700 nM | Kd [4, 35]: ≥ 37700 nM | Kd [5, 35]: 45.2 nM

Sequence: RQFEKDRSF
Kd [17, 35]: 0.143 nM

Sequence: LSISCPNSL
Kd [17, 35]: 256 nM

Sequence: FSVSFSPSL
Kd [17, 37]: 21.7 nM

Sequence: ELRDYFEQI
Kd [19]: ≥ 38000 nM | Kd [20]: 2190 nM | Kd [21]: 12.5 nM | Kd [17, 35]: 80.2 nM | Kd [22]: ≥ 77800 nM

Sequence: YQHFVARVF
Kd [17, 35]: 0.399 nM

Sequence: KSYETEYPK
IC50 [23]: 7880 nM | Kd [6, 38]: 126 nM | Kd [15, 38]: 728 nM | Kd [7, 38]: 7.7 nM

Sequence: KTHESHLVR
Kd ([6]; source organism: Yellow fever virus): 21.2 nM | Kd ([7]; source organism: Yellow fever virus 17D): 35.6 nM

Sequence: VTYDYIIPK
Kd ([6]; source organism: Kurkino virus): 42.4 nM | Kd [15, 39]: 50.8 nM | Kd [7, 39]: 1.2 nM

Sequence: IMRNFLRSI
Kd [24, 35]: 3920 nM | Kd [25, 35]: 485 nM | Kd [26, 35]: 0.398 nM | Kd [17, 35]: 106 nM

Sequence: RKNHIYNSF
Kd [17, 35]: 0.132 nM

Sequence: SQRFIFNII
Kd [21]: 653 nM | Kd [17, 35]: 299 nM | Kd [22]: 1870 nM

Sequence: VPEFAKQYV
Kd [1, 35]: ≥ 32600 nM | Kd [2, 35]: 128 nM | Kd [3, 35]: 1600 nM | Kd [4, 35]: 718 nM | Kd [5, 35]: 5150 nM

Sequence: LLTTPKFTV
Kd ([18]; source organism: Human alphaherpesvirus 1 strain 17): 500 nM

Sequence: NLFDIPLLTV
Kd [24, 37]: 1.55 nM | Kd [8, 37]: ≥ 21900 nM | Kd [25, 37]: 0.0997 nM | Kd [26, 37]: 0.253 nM | Kd [1, 37]: ≥ 69900 nM | Kd [2, 37]: 17100 nM | Kd [3, 37]: 18800 nM | Kd [27]: ≥ 48000 nM | Kd [28]: 11800 nM | Kd [29]: ≥ 22300 nM | Kd [4, 37]: ≥ 69600 nM | Kd [5, 37]: ≥ 69900 nM | Kd [30]: ≥ 69800 nM | Kd [31]: ≤ 0.1 nM

Sequence: TPDNFSSLI
Kd [1, 40]: 15300 nM | Kd [2, 40]: 11300 nM | Kd [3, 40]: ≥ 78100 nM | Kd [4, 40]: 1710 nM | Kd [5, 40]: 372 nM

Sequence: VQSFKINIF
Kd [17, 35]: 51.3 nM

Sequence: LPEETNIGCA
Kd [1, 35]: 8680 nM | Kd [2, 35]: ≥ 20700 nM | Kd [3, 35]: 243 nM | Kd [4, 35]: ≥ 69600 nM | Kd [5, 35]: 2080 nM

Sequence: IISYFIFNR
Kd [16, 41]: 304 nM | Kd [6, 41]: 22.5 nM

Sequence: KPIMSMGDII
Kd [1, 35]: 622 nM | Kd [2, 35]: 6.49 nM | Kd [3, 35]: 1980 nM | Kd [4, 35]: 425 nM | Kd [5, 35]: 90.7 nM

Sequence: ANVNARNRF
Kd [17, 35]: 552 nM

Kd [1, 42]: 296 nM | Kd [2, 42]: ≥ 77500 nM | Kd [3, 42]: ≥ 78100 nM | Kd [4, 42]: ≥ 77500 nM | Kd [5, 42]: ≥ 35200 nM
Sequence: QPFRPQQPY

Kd ([18]; source organism: Homo sapiens): 78 nM
Sequence: LMWITQCFL

Sequence: KPTTFMLKY
Kd [1, 33]: 41.3 nM | Kd [2, 33]: 11400 nM | Kd [3, 33]: 5220 nM | Kd [4, 33]: 13000 nM | Kd [5, 33]: 24.7 nM

Sequence: PPCQCTVQEF
Kd [1, 35]: ≥ 23400 nM | Kd [2, 35]: ≥ 45300 nM | Kd [3, 35]: ≥ 69900 nM | Kd [4, 35]: ≥ 69600 nM | Kd [5, 35]: 5150 nM

Sequence: RSKDTHVFA
Kd [19]: 0.0187 nM | Kd [17, 35]: 182 nM

Sequence: IPSTVKTNLY
Kd [1, 35]: 248 nM | Kd [2, 35]: ≥ 25600 nM | Kd [3, 35]: 10300 nM | Kd [4, 35]: ≥ 69600 nM | Kd [5, 35]: 213 nM

Sequence: GMFDWESMK
Kd [32]: 744 nM | Kd ([15]; source organism: Bacillus mycoides): 208 nM

Sequence: KGNVSALVK
Kd ([6]; source organism: Vibrio vulnificus YJ016): ≥ 20000 nM | Kd [15, 43]: 1160 nM | Kd [7, 43]: 184 nM

Sequence: IMFAKTLDF
Kd [17, 35]: 0.311 nM | Kd [22]: 6.82 nM

Sequence: ILFYFANGI
Kd [17, 35]: 139 nM | Kd [22]: 92.5 nM

Sequence: VVYIILAPK
Kd ([6]; source organism: Mycobacterium leprae): 300 nM | Kd ([7]; source organism: Mycobacterium tuberculosis): 27.4 nM
